Measured values reported in publication PMC2173603.

Biological target: L1-CFP (CFP tagged to the COOH terminus of human L1-CAM) (human) (UniProt P32004)
Assay: FRET or BRET

Sequence of UniProt P32004 (P32004 20-1257): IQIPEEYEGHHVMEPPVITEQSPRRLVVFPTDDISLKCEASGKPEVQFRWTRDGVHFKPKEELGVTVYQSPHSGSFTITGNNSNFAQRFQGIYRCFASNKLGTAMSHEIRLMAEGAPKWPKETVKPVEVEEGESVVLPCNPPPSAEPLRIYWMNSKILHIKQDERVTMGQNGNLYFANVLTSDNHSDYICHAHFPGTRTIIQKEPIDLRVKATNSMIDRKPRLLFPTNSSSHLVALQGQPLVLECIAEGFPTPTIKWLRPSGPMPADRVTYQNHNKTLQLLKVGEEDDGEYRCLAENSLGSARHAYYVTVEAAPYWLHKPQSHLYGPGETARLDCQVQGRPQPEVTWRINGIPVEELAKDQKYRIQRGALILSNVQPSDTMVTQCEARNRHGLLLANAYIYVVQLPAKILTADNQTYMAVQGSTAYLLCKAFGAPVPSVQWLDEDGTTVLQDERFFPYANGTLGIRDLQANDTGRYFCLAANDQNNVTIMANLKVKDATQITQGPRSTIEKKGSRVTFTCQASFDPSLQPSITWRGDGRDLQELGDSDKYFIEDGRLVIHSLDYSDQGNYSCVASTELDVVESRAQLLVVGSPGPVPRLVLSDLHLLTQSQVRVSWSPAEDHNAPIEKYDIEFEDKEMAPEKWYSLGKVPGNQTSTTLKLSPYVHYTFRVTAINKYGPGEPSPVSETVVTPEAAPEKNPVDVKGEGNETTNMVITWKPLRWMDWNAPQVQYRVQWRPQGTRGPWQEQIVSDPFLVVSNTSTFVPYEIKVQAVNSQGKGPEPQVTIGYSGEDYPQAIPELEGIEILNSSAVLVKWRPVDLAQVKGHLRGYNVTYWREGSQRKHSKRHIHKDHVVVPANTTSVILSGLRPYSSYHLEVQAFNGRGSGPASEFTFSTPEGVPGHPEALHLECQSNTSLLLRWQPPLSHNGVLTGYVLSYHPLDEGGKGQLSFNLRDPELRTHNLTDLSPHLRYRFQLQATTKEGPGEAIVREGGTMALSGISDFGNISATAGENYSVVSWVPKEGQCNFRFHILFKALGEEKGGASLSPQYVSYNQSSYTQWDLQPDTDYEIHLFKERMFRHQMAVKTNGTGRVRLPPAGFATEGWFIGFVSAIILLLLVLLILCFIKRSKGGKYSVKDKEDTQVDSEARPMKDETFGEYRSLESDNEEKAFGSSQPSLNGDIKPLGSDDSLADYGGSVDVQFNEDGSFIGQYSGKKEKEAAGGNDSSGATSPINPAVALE

percent of ankyrinB clusters with FRET^E >8%: 29.4%
Substance: Venus-ankyrinB (Venus tagged to the NH2 terminus of human ankyrinB) (natural protein)
